According to paper PMC7901536 (Arteriosclerosis, thrombosis, and vascular biology, 2021):

T1: dimeric GPVI (GPVI extracellular domain fused by IgG-Fc), Q9HCN6
T1 chain: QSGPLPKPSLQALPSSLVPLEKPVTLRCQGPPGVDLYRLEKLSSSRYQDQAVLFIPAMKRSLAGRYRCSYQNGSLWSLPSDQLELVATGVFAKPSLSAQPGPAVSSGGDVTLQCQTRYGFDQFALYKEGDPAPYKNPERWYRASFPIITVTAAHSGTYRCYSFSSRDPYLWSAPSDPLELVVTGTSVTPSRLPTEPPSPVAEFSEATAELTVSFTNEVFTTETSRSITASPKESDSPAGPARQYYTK

T2: dimeric GPVI (GPVI extracellular domain fused by IgG-Fc) (UniProt Q9HCN6 21-267, FITC label (in MST); biotin via NHS-LC-biotin (when immobilised in SPR))
T2 sequence (looked up): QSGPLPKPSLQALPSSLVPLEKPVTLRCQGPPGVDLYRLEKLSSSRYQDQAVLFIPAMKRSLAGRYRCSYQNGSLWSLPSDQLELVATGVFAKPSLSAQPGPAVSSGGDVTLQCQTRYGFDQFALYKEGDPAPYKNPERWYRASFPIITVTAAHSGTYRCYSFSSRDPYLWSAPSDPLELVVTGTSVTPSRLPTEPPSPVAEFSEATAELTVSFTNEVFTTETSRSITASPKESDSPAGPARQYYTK

T3: monomeric GPVI (His-tagged GPVI extracellular domain), Q9HCN6
T3 chain: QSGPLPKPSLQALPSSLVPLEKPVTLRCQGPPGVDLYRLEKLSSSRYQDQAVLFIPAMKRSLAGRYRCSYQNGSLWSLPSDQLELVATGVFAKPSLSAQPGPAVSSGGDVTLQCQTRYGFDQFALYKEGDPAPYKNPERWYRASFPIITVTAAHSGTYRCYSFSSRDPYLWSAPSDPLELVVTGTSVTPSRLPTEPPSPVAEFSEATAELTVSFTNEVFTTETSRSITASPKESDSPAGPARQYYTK


Assays:
[1] = molecular target: non-polymerising (NP) fibrin (UniProt P02671); assay: SPR; NP-fibrinogen immobilised, then converted to fibrin with thrombin; GPVI dimer as analyte (additional SPR experiments in the supplemental methods)
[2] = molecular target: recombinant non-polymerising (NP) fibrinogen (UniProt P02671); assay: as above
[3] = molecular target: recombinant fibrinogen αC fragment, C-terminal globular domain (Aα 368-610); assay: SPR; biotinylated αC fragments Aα 221-391 (80 RU), 368-610 (120 RU), 221-610 (180 RU) on SA chip; dimeric GPVI as analyte up to 20 μM; 25 °C; 1:1 Langmuir
[4] = molecular target: recombinant fibrinogen αC fragment, full-length (Aα 221-610); assay: as above
[5] = molecular target: dimeric GPVI (GPVI extracellular domain fused by IgG-Fc) (UniProt Q9HCN6); assay: MST; CRP-XL titrated into FITC-labelled GPVI monomer or dimer; read-out is the fall of the initial fluorescence (quenching); 1:1 model; hypothetical KD on the monomeric-equivalent molar concentration of CRP-XL
[6] = molecular target: monomeric GPVI (His-tagged GPVI extracellular domain) (UniProt Q9HCN6); assay: as above
[7] = molecular target: T1, dimeric GPVI (GPVI extracellular domain …); assay: SPR; monomeric and dimeric GPVI immobilised as ligands; X-, D-, E-fragment or D-dimer as analytes up to 40 μM; 1:1 Langmuir
[8] = molecular target: T1, dimeric GPVI (GPVI extracellular domain …); assay: MST; fibrin(ogen) or fragments titrated into FITC-labelled GPVI monomer or dimer (10 μl of 50 nM mixed 1:1); 20 mM HEPES pH 7.5, 50 mM NaCl; 23 °C; 1:1 model
[9] = molecular target: T2, dimeric GPVI (GPVI extracellular domain …); assay: SPR; monomeric and dimeric GPVI immobilised as ligands; X-, D-, E-fragment or D-dimer as analytes up to 40 μM; 1:1 Langmuir; settings: both partners purified
[10] = molecular target: T2, dimeric GPVI (GPVI extracellular domain …); assay: MST; fibrin(ogen) or fragments titrated into FITC-labelled GPVI monomer or dimer (10 μl of 50 nM mixed 1:1); 20 mM HEPES pH 7.5, 50 mM NaCl; 23 °C; 1:1 model; settings: both partners purified
[11] = molecular target: T3, monomeric GPVI (His-tagged GPVI …); assay: SPR; monomeric and dimeric GPVI immobilised as ligands; X-, D-, E-fragment or D-dimer as analytes up to 40 μM; 1:1 Langmuir

Row | Molecule | Kd [7] | Kd [8] | Kd [9] | Kd [10] | also measured
1 | dimeric GPVI (GPVI extracellular domain fused by IgG-Fc) (from UniProt Q9HCN6 21-267) (Fc fusion) |  |  |  |  | Kd [1]: 86 nM; Kd [2]: 127 nM; Kd [3]: 2300 nM; Kd [4]: 604 nM
2 | cross linked collagen-related peptide (CRP-XL) |  |  |  |  | Kd [5]: 603 nM; Kd [6]: 5 µM
3 | D-dimer (degradation product of FXIIIa cross-linked fibrin) (domain or fragment, cross-linked by FXIIIa (chain and residues not stated)) chain 1: VSEDLRSRIEVLKRKVIEKVQHIQLLQKNVRAQLVDMKRLEVDIDIKIRSCRGSCSRALAREVDLKDYEDQQKQLEQVIAKDLLPSR chain 2: DNENVVNEYSSELEKHQLYIDETVNSNIPTNLRVLRSILENLRSKIQKLESDVSAQMEYCRTPCTVSCNIPVVSGKECEEIIRKGGETSEMYLIQPDSSVKPYRVYCDMNTENGGWTVIQNRQDGSVDFGRKWDPYKQGFGNVATNTDGKNYCGLPGEYWLGNDKISQLTRMGPTELLIEMEDWKGDKVKAHYGGFTVQNEANKYQISVNKYRGTAGNALMDGASQLMGENRTMTIHNGMFFSTYDRDNDGWLTSDPRKQCSKEDGGGWWYNRCHAANPNGRYYWGGQYTWDMAKHGTDDGVVWMNWKGSWYSMRKMSMKIRPFFPQQ chain 3: KMLEEIMKYEASILTHDSSIRYLQEIYNSNNQKIVNLKEKVAQLEAQCQEPCKDTVQIHDITGKDCQDIANKGAKQSGLYFIKPLKANQQFLVYCEIDGSGNGWTVFQKRLDGSVDFKKNWIQYKEGFGHLSPTGTTEFWLGNEKIHLISTQSAIPYALRVELEDWNGRTSTADYAMFKVGPEADKYRLTYAYFAGGDAGDAFDGFDFGDDPSDKFFTSHNGMQFSTWDNDNDKFEGNCAEQDGSGWWMNKCHAGHLNGVYYQGGTYSKASTPNGYDNGIIWATWKTRWYSMKKTTMKIIPFNRLTIGEGQQHHLGGAK |  |  | 28 µM | > 20 µM | 

Further lines, with some results ahead:

Row | Kd [7] | Kd [8] | Kd [9] | Kd [10] | Molecule | also measured
4 | 26 µM | > 20 µM |  |  | fibrinogen D-fragment (domain or fragment, modifications not checked) chain 1: VSEDLRSRIEVLKRKVIEKVQHIQLLQKNVRAQLVDMKRLEVDIDIKIRSCRGSCSRALAREVDLKDYEDQQKQLEQVIAKDLLPSR chain 2: DNENVVNEYSSELEKHQLYIDETVNSNIPTNLRVLRSILENLRSKIQKLESDVSAQMEYCRTPCTVSCNIPVVSGKECEEIIRKGGETSEMYLIQPDSSVKPYRVYCDMNTENGGWTVIQNRQDGSVDFGRKWDPYKQGFGNVATNTDGKNYCGLPGEYWLGNDKISQLTRMGPTELLIEMEDWKGDKVKAHYGGFTVQNEANKYQISVNKYRGTAGNALMDGASQLMGENRTMTIHNGMFFSTYDRDNDGWLTSDPRKQCSKEDGGGWWYNRCHAANPNGRYYWGGQYTWDMAKHGTDDGVVWMNWKGSWYSMRKMSMKIRPFFPQQ chain 3: KMLEEIMKYEASILTHDSSIRYLQEIYNSNNQKIVNLKEKVAQLEAQCQEPCKDTVQIHDITGKDCQDIANKGAKQSGLYFIKPLKANQQFLVYCEIDGSGNGWTVFQKRLDGSVDFKKNWIQYKEGFGHLSPTGTTEFWLGNEKIHLISTQSAIPYALRVELEDWNGRTSTADYAMFKVGPEADKYRLTYAYFAGGDAGDAFDGFDFGDDPSDKFFTSHNGMQFSTWDNDNDKFEGNCAEQDGSGWWMNKCHAGHLNGVYYQGGTYSKASTPNGYDNGIIWATWKTRWYSMKKTTMKIIPFNRLTIGEGQQHHLGGAK | 
5 |  |  | 51 µM | > 20 µM | fibrinogen E-fragment (domain or fragment) chain 1: VVERHQSACKDSDWPFCSDEDWNYKCPSGCRMKGLIDEVNQDFTNRINKLKNSLFEYQK chain 2: KVERKAPDAGGCLHADPDLGVLCPTGCQLQEALLQQERPIRNSVDELNNNVEAVSQTSSSSFQYMYLLK chain 3: YVATRDNCCILDERFGSYCPTTCGIADFLSTYQTKVDKDLQSLEDILHQVENK | 
6 | 9 µM | > 2 µM |  |  | fibrinogen X-fragment (domain or fragment, modifications not checked) chain 1: ADSGEGDFLAEGGGVRGPRVVERHQSACKDSDWPFCSDEDWNYKCPSGCRMKGLIDEVNQDFTNRINKLKNSLFEYQKNNKDSHSLTTNIMEILRGDFSSANNRDNTYNRVSEDLRSRIEVLKRKVIEKVQHIQLLQKNVRAQLVDMKRLEVDIDIKIRSCRGSCSRALAREVDLKDYEDQQKQLEQVIAKDLLPSRDRQHLPLIKMKPVPDLVPGNFK chain 2: QGVNDNEEGFFSARGHRPLDKKREEAPSLRPAPPPISGGGYRARPAKAAATQKKVERKAPDAGGCLHADPDLGVLCPTGCQLQEALLQQERPIRNSVDELNNNVEAVSQTSSSSFQYMYLLKDLWQKRQKQVKDNENVVNEYSSELEKHQLYIDETVNSNIPTNLRVLRSILENLRSKIQKLESDVSAQMEYCRTPCTVSCNIPVVSGKECEEIIRKGGETSEMYLIQPDSSVKPYRVYCDMNTENGGWTVIQNRQDGSVDFGRKWDPYKQGFGNVATNTDGKNYCGLPGEYWLGNDKISQLTRMGPTELLIEMEDWKGDKVKAHYGGFTVQNEANKYQISVNKYRGTAGNALMDGASQLMGENRTMTIHNGMFFSTYDRDNDGWLTSDPRKQCSKEDGGGWWYNRCHAANPNGRYYWGGQYTWDMAKHGTDDGVVWMNWKGSWYSMRKMSMKIRPFFPQQ chain 3: YVATRDNCCILDERFGSYCPTTCGIADFLSTYQTKVDKDLQSLEDILHQVENKTSEVKQLIKAIQLTYNPDESSKPNMIDAATLKSRKMLEEIMKYEASILTHDSSIRYLQEIYNSNNQKIVNLKEKVAQLEAQCQEPCKDTVQIHDITGKDCQDIANKGAKQSGLYFIKPLKANQQFLVYCEIDGSGNGWTVFQKRLDGSVDFKKNWIQYKEGFGHLSPTGTTEFWLGNEKIHLISTQSAIPYALRVELEDWNGRTSTADYAMFKVGPEADKYRLTYAYFAGGDAGDAFDGFDFGDDPSDKFFTSHNGMQFSTWDNDNDKFEGNCAEQDGSGWWMNKCHAGHLNGVYYQGGTYSKASTPNGYDNGIIWATWKTRWYSMKKTTMKIIPFNRLTIGEGQQHHLGGAK | Kd [11]: > 1 mM
